From publication PMC3715890 (2013) come the findings set out here.

The target of the test is HIF-1alpha PAS-B (235-350) (Homo sapiens, UniProt Q16665). Put plainly: ITC.
Sequence of HIF-1alpha PAS-B (235-350) (Q16665 235-350): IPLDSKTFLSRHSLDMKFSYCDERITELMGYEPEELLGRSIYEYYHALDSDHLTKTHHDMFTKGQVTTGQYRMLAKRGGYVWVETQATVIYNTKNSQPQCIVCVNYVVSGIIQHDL

B1: P1 (Tat-cyclo-CLLFVY) (peptide)
chain: cyclo(C(S‑S‑Tat)LLFVY)
Take B1: the Kd was found to be 124 nM. That is a sub-micromolar value.
